Common to all, as to assay: cell-based or functional assay
The target of test [1] is HIV-1 98IN022 Env on pseudovirus (HIV-1).
Test [2] deals with HIV-1 IAVI-C18 Env (HIV-1).
Another test addresses HIV-1 JRCSF Env (HIV-1) (UniProt P20871).
For test [3], the target named is HIV-1 MGRM-AG-003 Env (HIV-1).
The target in test [4] is HIV-1 MGRM-C-004 Env on pseudovirus (HIV-1).
For test [5], the target named is HIV-1 MGRM-C-013 Env on pseudovirus (HIV-1).
Test [6] addresses HIV-1 MGRM-C-019 Env on pseudovirus (HIV-1).
For test [7], the target named is HIV-1 MGRM-C-022 Env on pseudovirus (HIV-1).
Test [8] concerns the target HIV-1 MGRM-C-023 Env on pseudovirus (HIV-1).
For test [9], the target named is HIV-1 MGRM-Chronic-B-010 Env on pseudovirus (HIV-1).
Test [10] has as its target HIV-1 MGRM-Chronic-B-017 Env on pseudovirus (HIV-1).
The target in test [11] is HIV-1 MGRM-D-001 Env (HIV-1).
The target in test [12] is HIV-1 MGRM-D-008 Env (HIV-1).
The target of test [13] is HIV-1 MGRM-D-012 Env (HIV-1).
Test [14] addresses HIV-1 MGRM-D-016 Env (HIV-1).
The target of test [15] is HIV-1 MGRM-D-022 Env (HIV-1).
Test [16] concerns the target HIV-1 MGRM-F1-021 Env (HIV-1).
Test [17] has as its target HIV-1 MGRM-G-004 Env (HIV-1).
Test [18] concerns the target HIV-1 MGRM-G-028 Env (HIV-1).
Test [19] deals with HIV-1 TRO.11 (Acute) Env on pseudovirus (HIV-1).

Chain of 1443_C16 (PG16) (TCN-116) (antibody) (VH): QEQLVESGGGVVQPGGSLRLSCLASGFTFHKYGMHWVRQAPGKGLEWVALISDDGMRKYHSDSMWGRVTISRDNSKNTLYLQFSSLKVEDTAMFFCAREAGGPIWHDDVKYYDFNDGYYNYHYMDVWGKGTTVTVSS
Chain of 1443_C16 (PG16) (TCN-116) (antibody) (VL): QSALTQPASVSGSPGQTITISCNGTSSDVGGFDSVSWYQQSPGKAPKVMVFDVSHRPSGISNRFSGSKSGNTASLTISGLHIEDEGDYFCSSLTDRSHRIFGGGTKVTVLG

In the case of 1443_C16 (PG16) (TCN-116) (antibody), the IC50 in [1] was 0.003 µg/mL; in test [4], 5.09 µg/mL; in [5], above 50 µg/mL; in [6], 0.002 µg/mL; in [7], 0.25 µg/mL; in test [8], 0.09 µg/mL. Besides, the results for the IC50 in test [9], in test [10] and in [19] were 0.01 µg/mL, 0.02 µg/mL and 0.22 µg/mL, respectively. Also, the neutralization IC50 in test [2] was 0.0067 µg/mL; in the test with HIV-1 JRCSF Env (HIV-1) it was below 0.0025 µg/mL. Besides, the neutralization IC90 in test [2] came out at 0.207 µg/mL; with HIV-1 JRCSF Env (HIV-1) it was 0.013 µg/mL. The IC50 (µg/ml), pseudovirus neutralization in test [3] was above 50 µg/mL; in test [11], above 50 µg/mL; in test [12] it was above 50 µg/mL; in test [13], 0.35 µg/mL; in test [14], 0.02 µg/mL; in test [15], above 50 µg/mL. In addition, the IC50 (µg/ml), pseudovirus neutralization in test [17] is above 50 µg/mL; in [18] it was 3.09 µg/mL. The substance further came in with an IC50 (pseudovirus neutralization) in test [16] above 50 µg/mL.
For the substance 4E10 (antibody), the IC50 in test [1] was 0.53 µg/mL; in test [4], 24.2 µg/mL; in test [5] it was 2.1 µg/mL; in [6] it was 3.49 µg/mL; in [7] it was 5.71 µg/mL; in test [8], 1.95 µg/mL. Further, the half-inhibitory concentration (IC50) in test [9] was determined as 1.69 µg/mL; in test [10] it was 2.77 µg/mL; in test [19], 1.39 µg/mL. Besides, the neutralization IC50 was above 50 µg/mL in test [2] and 6 µg/mL in the test with HIV-1 JRCSF Env (HIV-1). In addition, the neutralization IC90 in test [2] was above 50 µg/mL; in the test with HIV-1 JRCSF Env (HIV-1), 44.1 µg/mL. The IC50 (µg/ml), pseudovirus neutralization in test [3] stood at 0.64 µg/mL; in [11], 1.84 µg/mL; in test [12], 42.9 µg/mL; in test [13], 1.13 µg/mL; in [14], 15.4 µg/mL; in [15], 16.9 µg/mL. The IC50 (µg/ml), pseudovirus neutralization in [17] came to 1.47 µg/mL; in test [18], 6.32 µg/mL. The substance further displayed an IC50 (pseudovirus neutralization) in test [16] of 1.87 µg/mL.
2F5 (antibody): the IC50 is above 50 µg/mL in test [1]; above 50 µg/mL in test [4]; 18.4 µg/mL in [5]; above 50 µg/mL in test [6]; above 50 µg/mL in test [7]; above 50 µg/mL in test [8]. Moreover, the IC50 in [9] is 0.96 µg/mL; in [10], above 50 µg/mL; in test [19] it was above 50 µg/mL. Besides, the neutralization IC50 in test [2] is above 50 µg/mL; in the test with HIV-1 JRCSF Env (HIV-1), 3.36 µg/mL. Moreover, in the test with HIV-1 JRCSF Env (HIV-1), the neutralization IC90 was determined as 25.3 µg/mL. Moreover, the IC50 (µg/ml), pseudovirus neutralization is 0.14 µg/mL in test [3]; 0.63 µg/mL in [11]; above 50 µg/mL in [12]; 1.7 µg/mL in test [13]; 9.85 µg/mL in test [14]; 8.45 µg/mL in test [15]. The IC50 (µg/ml), pseudovirus neutralization in [17] was above 50 µg/mL; in test [18], 2.24 µg/mL. The substance also yielded an IC50 (pseudovirus neutralization) in test [16] of 1.37 µg/mL.
For the substance b12 (antibody), the 50% inhibitory concentration (IC50) in [1] is 0.42 µg/mL; in [4] it was 5.46 µg/mL; in [5], above 50 µg/mL; in test [6], above 50 µg/mL; in [7], above 50 µg/mL; in [8] it was 13.9 µg/mL. Further, the IC50 was above 50 µg/mL in test [9], 2.59 µg/mL in test [10] and above 50 µg/mL in [19]. Also, the neutralization IC50 in test [2] was above 50 µg/mL; in the test with HIV-1 JRCSF Env (HIV-1) it was 0.16 µg/mL. Besides, the neutralization IC90 in test [2] was above 50 µg/mL; in the test with HIV-1 JRCSF Env (HIV-1), 1.17 µg/mL. Besides, the IC50 (µg/ml), pseudovirus neutralization in [3] is above 50 µg/mL; in [11], above 50 µg/mL; in [12] it was above 50 µg/mL; in [13] it was 0.13 µg/mL; in test [14], 1.12 µg/mL; in test [15] it was 17.6 µg/mL. For the same substance, the IC50 (µg/ml), pseudovirus neutralization in test [17] and in [18] was above 50 µg/mL each time. Also, in [16], the IC50 (pseudovirus neutralization) is above 50 µg/mL.

The IC50 is the midpoint of a concentration-inhibition curve.
